# In publication PMC11405125 (Briefings in Bioinformatics, 2024):
# B1: HuJ3 E44R (VHH)
# VHH: EVQLVESGGGLVQPGGSLRLSCAASGSIFNQYAMAWFRQAPGKRREFVAGMGAVPHYGEFVKGRFTISRDNSKNTVYLQMNSLRAEDTAVYYCARSKSTYISYNSNGYDYWGQGTLVTVS
# B2: HuJ3 V54E (VHH)
# VHH: EVQLVESGGGLVQPGGSLRLSCAASGSIFNQYAMAWFRQAPGKEREFVAGMGAEPHYGEFVKGRFTISRDNSKNTVYLQMNSLRAEDTAVYYCARSKSTYISYNSNGYDYWGQGTLVTVS
# B3: HuJ3 S102R (VHH)
# VHH: EVQLVESGGGLVQPGGSLRLSCAASGSIFNQYAMAWFRQAPGKEREFVAGMGAVPHYGEFVKGRFTISRDNSKNTVYLQMNSLRAEDTAVYYCARSKSTYIRYNSNGYDYWGQGTLVTVS
# Target: HIV-1 Bal gp140 (Human immunodeficiency virus 1, isolate …, UniProt Q2MKA8, strain)
# Assay: ELISA
row,Binder,EC50
1,B1,1.7 nM
2,B2,2.31 nM
3,B3,10.4 nM
